Test results published in the supplement of paper PMC9170038.

Tested on: MS2 coat protein
Experiment: apparent KD of MS2 coat protein; higher = weaker reporter binding
Conditions: Eterna round: R107
Protocol: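 RNA-MaP round R107: designed RNA switches with theophylline, tryptophan, arginine or FMN aptamers are transcribed on-chip within common flanks. They are titrated with SNAP-549-labelled MS2 coat protein in RNA-MaP buffer (100 mM Tris pH 7.5, 80 mM KCl, 4 mM MgCl2), without ligand or with the indicated ligand. Median apparent KD per design.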

[1] = input ligand: theophylline 20 uM
[2] = input ligand: theophylline 2 mM
[3] = input ligand: tryptophan 2.4 mM

AAAACACAUGAGGAUCACCCAUGUCAUGAUACCAGUCAACAUGAGGACCCUUGGCAGCAUAAAAUGGGUAACAUGAGGAUCACCC [AstrosEXyTheA#1]
apparent KD of MS2 coat protein (input ligand: arginine 13.2 mM): 129 nM | apparent KD of MS2 coat protein (input ligand: none): 29.4 nM | apparent KD of MS2 coat protein [1]: 93.8 nM | apparent KD of MS2 coat protein [2]: 102 nM | apparent KD of MS2 coat protein [3]: 50.5 nM

AAAACACAUGAGGAUCACCCAUGUCGUGAUACCAGUCAACAUGAGGACCCUUGGCAGCAUAAAAUGGGUAACAUGAGGAUCACCC [AstrosEXyTheA#5]
apparent KD of MS2 coat protein (input ligand: arginine 13.2 mM): 65.3 nM | apparent KD of MS2 coat protein [1]: 118 nM | apparent KD of MS2 coat protein [3]: 90.9 nM

AAAACAUGAGGAUCACCACAUGACAUGAGGCGAGGACCGGUACGGCCGCCACUCGACAUACAUGAGGAUCACCCAUGUUUGUUGU [Exclusion Tryptophan A 4]
apparent KD of MS2 coat protein (input ligand: arginine 13.2 mM): 40.7 nM | apparent KD of MS2 coat protein [1]: 274 nM | apparent KD of MS2 coat protein [2]: 460 nM

AAAACAUGAGGAUCACCCAUGUGGUGAGAAGGAGCGUCGGAAAUGACAGGUAGGUCGCUUAUCCGUAAGUAUUAGUGUUAGUACA [SSArg A #1]
apparent KD of MS2 coat protein (input ligand: arginine 13.2 mM): 140 nM | apparent KD of MS2 coat protein (input ligand: none): 280 nM | apparent KD of MS2 coat protein [1]: 290 nM | apparent KD of MS2 coat protein [2]: 388 nM | apparent KD of MS2 coat protein [3]: 335 nM

AAAAGAGGUGGAAGGAGCGGGAGACAUGAGGAUCACCCAUGUGAUAUGACAAGAGGAUCAGCCCAGGUAGGUCGCCAUGUCGAAA [pbbbmullin]
apparent KD of MS2 coat protein (input ligand: arginine 13.2 mM): 17.9 nM | apparent KD of MS2 coat protein (input ligand: none): 71.1 nM | apparent KD of MS2 coat protein [1]: 53.1 nM | apparent KD of MS2 coat protein [2]: 103 nM | apparent KD of MS2 coat protein [3]: 50 nM

AAAAUCCUACUUGAGGAUCACCCAGGUGAAGGAGCGCCCGAAAGGGCAGGUAGGUCGCACCUGAGGAUCACCCUGGUAAACCUAA [ArgEX 8 #DoubleMS2 #OpenEnded]
apparent KD of MS2 coat protein (input ligand: arginine 13.2 mM): 79.1 nM | apparent KD of MS2 coat protein (input ligand: none): 140 nM | apparent KD of MS2 coat protein [1]: 135 nM | apparent KD of MS2 coat protein [2]: 185 nM | apparent KD of MS2 coat protein [3]: 152 nM

AAACAUUGCUCAGAUACCAGACAUGAGGAUCACCCAUGUACCAAGGUAAAGAAAUAACGUGUCCCUUGGCAGCUGAGCAAUGAAA [MAT - Exclusion Theophlline B - Mod of Eli - D10]
apparent KD of MS2 coat protein (input ligand: arginine 13.2 mM): 11.5 nM | apparent KD of MS2 coat protein [1]: 12.8 nM | apparent KD of MS2 coat protein [3]: 10.9 nM

AAAUAAAUACAUGAGGAUCACCCAUGUGAAGGAGCGCCCGUUAGGGCAGGUAGGUCGCGCAUGAAUAACUCCGUGCAAAAGCACA [ArgEX 19 #OpenEnded]
apparent KD of MS2 coat protein (input ligand: arginine 13.2 mM): 57.8 nM | apparent KD of MS2 coat protein (input ligand: none): 15.6 nM | apparent KD of MS2 coat protein [1]: 37.3 nM | apparent KD of MS2 coat protein [2]: 26.4 nM | apparent KD of MS2 coat protein [3]: 19.6 nM

AACAGGGCUUCCACGAAGCCCUAAGGUGAUACCAGCACAUGUAAGUGCCCUUGGCAGCACGGUACAUGAGGAUCACCCAUGUAGA [Gerara]
apparent KD of MS2 coat protein (input ligand: arginine 13.2 mM): 19.9 nM | apparent KD of MS2 coat protein [1]: 237 nM | apparent KD of MS2 coat protein [3]: 24.3 nM

AACAGGGUCUGAAGGAGCGCGAUCACAUGAGGAUCACCCAUGUGAAAUGGUAGAUGAUACUCGCAGGUAGGUCGCAGUACUUGAC [Same State Arginine B GF 15]
apparent KD of MS2 coat protein (input ligand: arginine 13.2 mM): 54.2 nM | apparent KD of MS2 coat protein (input ligand: none): 33.6 nM | apparent KD of MS2 coat protein [1]: 127 nM | apparent KD of MS2 coat protein [2]: 82.4 nM | apparent KD of MS2 coat protein [3]: 28.4 nM

AACAUACAGUUUUAGGUGGAUAUAAGGCGGCGAGGACCGGUACGGCCGCCACUCGCGUACAUGAGGAUCACCCAUGUCUGAAGCU [Same State - Tryptophan A (Freestyle 7)]
apparent KD of MS2 coat protein (input ligand: arginine 13.2 mM): 24.4 nM | apparent KD of MS2 coat protein [1]: 59.2 nM | apparent KD of MS2 coat protein [2]: 86.9 nM

AACAUGAGGAUCACCCAUGUCCCAUGUGAACGAGGACCGGUACGGCCGCCACUCGACCGAGGCGGCACAUGAGGAUCACCCACAU [whbob_SS_trypto A_2s13]
apparent KD of MS2 coat protein (input ligand: arginine 13.2 mM): 137 nM | apparent KD of MS2 coat protein [1]: 278 nM | apparent KD of MS2 coat protein [2]: 370 nM

AACAUGAGGAUCACCCAUGUCGGGCCGGAGCGAGGACCGGUACGGCCGCCACUCGAGACAUGAGGAUCACCCAUGUAGGGCGAAA [Exclusion Tryptophan A GF21]
apparent KD of MS2 coat protein (input ligand: arginine 13.2 mM): 61.5 nM | apparent KD of MS2 coat protein (input ligand: none): 116 nM | apparent KD of MS2 coat protein [1]: 141 nM | apparent KD of MS2 coat protein [2]: 189 nM | apparent KD of MS2 coat protein [3]: 186 nM

AACAUGAGGAUCACCCAUGUCGGGCCGGUGCGAGGACCGGUACGGCCGCCACUCGAGACAUGAGGAUCACCCAUGUAGGGCGAGA [Exclusion Tryptophan A GF22]
apparent KD of MS2 coat protein (input ligand: arginine 13.2 mM): 44 nM | apparent KD of MS2 coat protein (input ligand: none): 79.7 nM | apparent KD of MS2 coat protein [1]: 70.7 nM | apparent KD of MS2 coat protein [2]: 80.7 nM | apparent KD of MS2 coat protein [3]: 115 nM

AACAUGAGGAUCACCCAUGUCUGAACUGAAGGAGCGCUAAAUAAGGCAGGUAGGUCGCGGAAUUUUAUAUAUAUAUAUAUAUAGG [9.D]
apparent KD of MS2 coat protein (input ligand: arginine 13.2 mM): 28.7 nM | apparent KD of MS2 coat protein (input ligand: none): 28 nM | apparent KD of MS2 coat protein [1]: 31.9 nM | apparent KD of MS2 coat protein [2]: 19.8 nM | apparent KD of MS2 coat protein [3]: 25 nM

AACAUGAGGAUCACCCAUGUCUGAACUGAAGGAGCGCUAAAUAAGGCAGGUAGGUCGCGGAAUUUUGUAUAUAUAUAUAUAUGGG [9.F]
apparent KD of MS2 coat protein (input ligand: arginine 13.2 mM): 6.01 nM | apparent KD of MS2 coat protein (input ligand: none): 27.7 nM | apparent KD of MS2 coat protein [1]: 28.5 nM | apparent KD of MS2 coat protein [2]: 25 nM | apparent KD of MS2 coat protein [3]: 20.3 nM

AACAUGAGGAUCACCCAUGUCUGAACUGAAGGAGCGCUAAAUAAGGCAGGUAGGUCGCGGAAUUUUGUGUGCAUAUGCAUAUGGG [9.I]
apparent KD of MS2 coat protein (input ligand: arginine 13.2 mM): 28.1 nM | apparent KD of MS2 coat protein (input ligand: none): 30.3 nM | apparent KD of MS2 coat protein [1]: 32.6 nM | apparent KD of MS2 coat protein [2]: 29.8 nM | apparent KD of MS2 coat protein [3]: 23.8 nM

AACGUAUACAGAAGGAGCGUGAAUUAUAUUACUCAUUCAUAUACAUGAGGAUCACCCAUGUCACAGGUAGGUCGCUGUAUUCGUA [JR_ExcArginiB_Sub020]
apparent KD of MS2 coat protein (input ligand: arginine 13.2 mM): 55.9 nM | apparent KD of MS2 coat protein (input ligand: none): 82.2 nM | apparent KD of MS2 coat protein [1]: 92 nM | apparent KD of MS2 coat protein [2]: 86.9 nM | apparent KD of MS2 coat protein [3]: 65.4 nM
